Bridge positions count the residues as written; N and C are the ends. Square brackets hold non-standard residues; d marks the D form. Bip = N[C@@H](Cc1ccc(-c2ccccc2)cc1)C(=O)O; 1Nal = N[C@@H](Cc1cccc2ccccc12)C(=O)O; 2Nal = N[C@@H](Cc1ccc2ccccc2c1)C(=O)O; NMeR = CN[C@@H](CCCNC(=N)N)C(=O)O; Tic = O=C(O)[C@@H]1Cc2ccccc2CN1; β3hE = N[C@@H](CCC(=O)O)CC(=O)O; Cha = N[C@@H](CC1CCCCC1)C(=O)O; Cit = NC(=O)NCCC[C@H](N)C(=O)O; NMeK = CN[C@@H](CCCCN)C(=O)O; Pen = CC(C)(S)[C@H](N)C(=O)O; Dab = NCC[C@H](N)C(=O)O
Each binder was assayed against human α4β7 integrin on cells (human) (UniProt P13612) (assay: RPMI8866 adhesion to MAdCAM-1).

IC50 | Binder
> 10 nM | Ac-[Pen][NMeR]SDTL[Pen][Bip][dE][dK]-NH2 (disulfide 1-7; also: dimer via DIG, attachment site not given here) [SEQ ID NO: 108]
< 10 nM | Ac-[Pen][NMeR]SDTL[Pen][Bip]E[NMeK]-NH2 (disulfide 1-7 (inferred); also: homodimer via DIG) [SEQ ID NO: 136]
> 50 nM | Ac-[Pen][NMeR]SDTL[Pen][1Nal][dT][dK]-NH2 (disulfide 1-7 (inferred); also: homodimer via DIG) [SEQ ID NO: 116]
> 1000 nM | Ac-[Pen][NMeR]SDLL[Pen][2Nal][dE]-NH2 (disulfide 1-7; SMILES CC(=O)N[C@@H]1C(=O)N(C)[C@@H](CCCNC(=N)N)C(=O)N[C@@H](CO)C(=O)N[C@@H](CC(=O)O)C(=O)N[C@@H](CC(C)C)C(=O)N[C@@H](CC(C)C)C(=O)N[C@H](C(=O)N[C@@H](Cc2ccc3ccccc3c2)C(=O)N[C@H](CCC(=O)O)C(N)=O)C(C)(C)SSC1(C)C) [SEQ ID NO: 159]
> 100 nM | Ac-[Pen][NMeR]SDTL[Pen][1Nal][Tic][dK]-NH2 (disulfide 1-7 (inferred); also: homodimer via DIG) [SEQ ID NO: 115]
> 100 nM | Ac-[Pen][NMeR]SDTL[Pen][1Nal][dF][dK]-NH2 (disulfide 1-7; also: dimer via DIG, attachment site not given here) [SEQ ID NO: 111]
> 1000 nM | Ac-[Pen][NMeR]SDFL[Pen][2Nal][dE]-NH2 (disulfide 1-7; SMILES CC(=O)N[C@@H]1C(=O)N(C)[C@@H](CCCNC(=N)N)C(=O)N[C@@H](CO)C(=O)N[C@@H](CC(=O)O)C(=O)N[C@@H](Cc2ccccc2)C(=O)N[C@@H](CC(C)C)C(=O)N[C@H](C(=O)N[C@@H](Cc2ccc3ccccc3c2)C(=O)N[C@H](CCC(=O)O)C(N)=O)C(C)(C)SSC1(C)C) [SEQ ID NO: 157]
> 1000 nM | Ac-[Pen][NMeR]SDTL[Pen][2Nal][dR][dK]-NH2 (disulfide 1-7 (inferred); also: homodimer via DIG) [SEQ ID NO: 120]
> 25 nM | Ac-[Pen][NMeR]SDTL[Pen][2Nal][dH][dK]-NH2 (disulfide 1-7 (inferred); also: homodimer via DIG) [SEQ ID NO: 118]
< 10 nM | Ac-[Pen][NMeR]SDTL[Pen]WE[Dab]-NH2 (disulfide 1-7; also: dimer (monomer)2-DIG, DIG attachment place not given here) [SEQ ID NO: 97]
> 1000 nM | Ac-[Pen][NMeR]SD[Cha]L[Pen][2Nal][dE]-NH2 (disulfide 1-7; SMILES CC(=O)N[C@@H]1C(=O)N(C)[C@@H](CCCNC(=N)N)C(=O)N[C@@H](CO)C(=O)N[C@@H](CC(=O)O)C(=O)N[C@@H](CC2CCCCC2)C(=O)N[C@@H](CC(C)C)C(=O)N[C@H](C(=O)N[C@@H](Cc2ccc3ccccc3c2)C(=O)N[C@H](CCC(=O)O)C(N)=O)C(C)(C)SSC1(C)C) [SEQ ID NO: 158]
> 50 nM | Ac-[Pen][NMeR]SDTL[Pen][Tic][dE][dK]-NH2 (disulfide 1-7; also: dimer (monomer)2-DIG, DIG attachment place not given here) [SEQ ID NO: 80]
> 100 nM | Ac-[Pen][NMeR]SDTL[Pen]W[Tic][dK]-NH2 (disulfide 1-7; also: dimer via DIG, attachment site not given here) [SEQ ID NO: 109]
> 500 nM | Ac-[Pen][NMeR]SDTL[Pen][1Nal][dL][dK]-NH2 (disulfide 1-7 (inferred); also: homodimer via DIG) [SEQ ID NO: 113]
> 50 nM | Ac-[Pen][NMeR]SDTL[Pen][2Nal]E-NH2 (disulfide 1-7; SMILES CC(=O)N[C@@H]1C(=O)N(C)[C@@H](CCCNC(=N)N)C(=O)N[C@@H](CO)C(=O)N[C@@H](CC(=O)O)C(=O)N[C@@H]([C@@H](C)O)C(=O)N[C@@H](CC(C)C)C(=O)N[C@H](C(=O)N[C@@H](Cc2ccc3ccccc3c2)C(=O)N[C@@H](CCC(=O)O)C(N)=O)C(C)(C)SSC1(C)C) [SEQ ID NO: 75]
> 10 nM | Ac-[Pen][NMeR]SDTL[Pen][2Nal][dT][dK]-NH2 (disulfide 1-7 (inferred); also: dimer via DIG linker) [SEQ ID NO: 140]
> 100 nM | Ac-[Pen][NMeR]SDTL[Pen][2Nal][dF][dK]-NH2 (disulfide 1-7 (inferred); also: homodimer via DIG) [SEQ ID NO: 117]
> 100 nM | Ac-[Pen][NMeR]SDVL[Pen][2Nal][dE]-NH2 (disulfide 1-7 (inferred)) [SEQ ID NO: 156]
< 10 nM | Ac-[Pen][NMeR]SDTL[Pen][Bip][β3hE][dK]-NH2 (disulfide 1-7 (inferred); also: homodimer via DIG) [SEQ ID NO: 135]
> 500 nM | Ac-[Pen][NMeR]SDTL[Pen][2Nal][dL][dK]-NH2 (disulfide 1-7 (inferred); also: homodimer via DIG) [SEQ ID NO: 119]
> 100 nM | Ac-[Pen][NMeR]SDTL[Pen][1Nal][dR][dK]-NH2 (disulfide 1-7 (inferred); also: homodimer via DIG) [SEQ ID NO: 114]
> 100 nM | Ac-[Pen][NMeR]SDTL[Pen][2Nal][Tic][dK]-NH2 (disulfide 1-7 (inferred); also: homodimer via DIG) [SEQ ID NO: 121]
> 50 nM | Ac-[Pen][NMeR]SDTL[Pen][1Nal][dH][dK]-NH2 (disulfide 1-7 (inferred); also: homodimer via DIG) [SEQ ID NO: 112]
> 10 nM | Ac-[Pen][NMeR]SDTL[Pen]W[Cit][dK]-NH2 (disulfide 1-7; also: dimer (monomer)2-DIG, DIG attachment place not given here) [SEQ ID NO: 84]
